According to US9963506B2, “Human-mouse chimeric anti-CD147 antibody with non-fucosylated glycosylation” (Fourth Military Medical University, priority 2015, dated 2018):

Target: T1, CD147 (Homo sapiens, UniProt P35613)
T1 construct: FFPE tissue sections from a selected panel of human cancer tissue arrays; tissue Chaoying Biotechnology Co., LTD, China; host or cells: human cancer tissue arrays (lung, ovarian, stomach, esophagus, breast, cervical, liver, colon cancer), FFPE
T1 sequence (P35613 22-269 isoform P35613-2 limits assumed): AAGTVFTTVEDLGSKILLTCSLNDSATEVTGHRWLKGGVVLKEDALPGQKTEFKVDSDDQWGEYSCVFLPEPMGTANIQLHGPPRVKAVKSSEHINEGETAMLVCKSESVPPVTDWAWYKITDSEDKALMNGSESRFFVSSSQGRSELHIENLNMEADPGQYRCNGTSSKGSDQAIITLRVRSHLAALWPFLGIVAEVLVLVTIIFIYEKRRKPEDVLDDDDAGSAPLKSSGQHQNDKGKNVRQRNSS
Experiment: Immunohistochemical detection of CD147 in human cancer tissue arrays (tissue cross reactivity)
Type: binding
Experimental: To test the specificity of Metuzumab (HcHAb18), tissue cross reactivity of Metuzumab was evaluated in FFPE tissue sections from a selected panel of human cancer tissue arrays (Chaoying Biotechnology Co., LTD, China.). Slides were microwaved for 10 min in 10 mM sodium citrated (pH 6.0), cooled for 30 min at 25° C. After incubating for 10 min in 3% H2O2 to block endogenous peroxidase, and blocking for 1 hr in 10% goat serum, slides were incubated overnight in a humidity chamber with biotinylated Metuzumab (30 μg/ml). Binding was visualized with streptavidin-conjugated peroxidase (ZsBio, China) and DAB detection system (ZsBio, China). Sections were analyzed using a bright-field microscope. The staining results were evaluated by 2 experienced pathologist in a blinded manner and classified into four categories: of 0 (no visible staining), 1+ (light brown), 2+ (mid-brown), and 3+ (dark brown), respectively, with the same intensity covering more than 75% of the staining area.

Substance: Metuzumab: human-mouse chimeric anti-CD147 IgG1, heavy chain SEQ ID NO: 4, light chain SEQ ID NO: 3, Mannose-5 glycoform lacking fucose and xylose
- Positive rate (Colon cancer): 82.00%
- Sensitivity response rate (Colon cancer): 82.00%
- Specificity (Colon cancer): 84.00%
- Tumor tissues specifically bound (positive/total) (Colon cancer): 41/50
- Staining level 0 (no visible staining), number of tissues (Colon cancer, number 50): 9
- Staining level 1+ (light brown), number of tissues (Colon cancer, number 50): 8
- Staining level 2+ (mid-brown), number of tissues (Colon cancer, number 50): 26
- Staining level 3+ (dark brown), number of tissues (Colon cancer, number 50): 7
- Positive rate (Esophagus cancer): 93.75%
- Sensitivity response rate (Esophagus cancer): 93.75%
- Specificity (Esophagus cancer): 81.25%
- Tumor tissues specifically bound (positive/total) (Esophagus cancer): 30/32
- Staining level 0 (no visible staining), number of tissues (Esophagus cancer, number 32): 2
- Staining level 1+ (light brown), number of tissues (Esophagus cancer, number 32): 6
- Staining level 2+ (mid-brown), number of tissues (Esophagus cancer, number 32): 13
- Staining level 3+ (dark brown), number of tissues (Esophagus cancer, number 32): 11
- Positive rate (Liver cancer): 85.00%
- Sensitivity response rate (Liver cancer): 85.00%
- Specificity (Liver cancer): 75.00%
- Tumor tissues specifically bound (positive/total) (Liver cancer): 17/20
- Staining level 0 (no visible staining), number of tissues (Liver cancer, number 20): 3
- Staining level 1+ (light brown), number of tissues (Liver cancer, number 20): 11
- Staining level 2+ (mid-brown), number of tissues (Liver cancer, number 20): 6
- Positive rate (Lung cancer): 88.24%
- Sensitivity response rate (Lung cancer): 88.24%
- Specificity (Lung cancer): 91.67%
- Tumor tissues specifically bound (positive/total) (Lung cancer): 60/68
- Staining level 0 (no visible staining), number of tissues (Lung cancer, number 68): 8
- Staining level 1+ (light brown), number of tissues (Lung cancer, number 68): 5
- Staining level 2+ (mid-brown), number of tissues (Lung cancer, number 68): 23
- Staining level 3+ (dark brown), number of tissues (Lung cancer, number 68): 32
- Positive rate (Mammary cancer): 90.00%
- Sensitivity response rate (Mammary cancer): 90.00%
- Specificity (Mammary cancer): 77.50%
- Staining level 0 (no visible staining), number of tissues (Mammary cancer, number 40): 4
- Staining level 1+ (light brown), number of tissues (Mammary cancer, number 40): 6
- Staining level 2+ (mid-brown), number of tissues (Mammary cancer, number 40): 11
- Staining level 3+ (dark brown), number of tissues (Mammary cancer, number 40): 19
- Positive rate (Mammary tissue): 22.50%
- Staining level 0 (no visible staining), number of tissues (Mammary tissue, number 40): 31
- Staining level 1+ (light brown), number of tissues (Mammary tissue, number 40): 5
- Staining level 2+ (mid-brown), number of tissues (Mammary tissue, number 40): 2
- Staining level 3+ (dark brown), number of tissues (Mammary tissue, number 40): 2
- Positive rate (Normal cervix uteri): 0%
- Staining level 0 (no visible staining), number of tissues (Normal cervix uteri, number 4): 4
- Staining level 1+ (light brown), number of tissues (Normal cervix uteri, number 4): 0
- Staining level 2+ (mid-brown), number of tissues (Normal cervix uteri, number 4): 0
- Staining level 3+ (dark brown), number of tissues (Normal cervix uteri, number 4): 0
- Positive rate (Normal colon): 16.00%
- Staining level 0 (no visible staining), number of tissues (Normal colon, number 50): 42
- Staining level 1+ (light brown), number of tissues (Normal colon, number 50): 5
- Staining level 2+ (mid-brown), number of tissues (Normal colon, number 50): 2
- Staining level 3+ (dark brown), number of tissues (Normal colon, number 50): 1
- Positive rate (Normal esophagus): 18.75%
- Staining level 0 (no visible staining), number of tissues (Normal esophagus, number 16): 13
- Staining level 1+ (light brown), number of tissues (Normal esophagus, number 16): 3
- Staining level 2+ (mid-brown), number of tissues (Normal esophagus, number 16): 0
- Staining level 3+ (dark brown), number of tissues (Normal esophagus, number 16): 0
- Positive rate (Normal liver): 25.00%
- Staining level 0 (no visible staining), number of tissues (Normal liver, number 4): 3
- Staining level 1+ (light brown), number of tissues (Normal liver, number 4): 0
- Staining level 2+ (mid-brown), number of tissues (Normal liver, number 4): 1
- Staining level 3+ (dark brown), number of tissues (Normal liver, number 4): 0
- Positive rate (Normal lung): 8.33%
- Staining level 0 (no visible staining), number of tissues (Normal lung, number 12): 10
- Staining level 1+ (light brown), number of tissues (Normal lung, number 12): 2
- Staining level 2+ (mid-brown), number of tissues (Normal lung, number 12): 0
- Staining level 3+ (dark brown), number of tissues (Normal lung, number 12): 0
- Positive rate (Normal ovary): 0%
- Staining level 0 (no visible staining), number of tissues (Normal ovary, number 12): 12
- Staining level 1+ (light brown), number of tissues (Normal ovary, number 12): 0
- Staining level 2+ (mid-brown), number of tissues (Normal ovary, number 12): 0
- Staining level 3+ (dark brown), number of tissues (Normal ovary, number 12): 0
- Positive rate (Ovary cancer): 75%
- Sensitivity response rate (Ovary cancer): 75.00%
- Specificity (Ovary cancer): 100%
- Staining level 0 (no visible staining), number of tissues (Ovary cancer, number 12): 3
- Staining level 1+ (light brown), number of tissues (Ovary cancer, number 12): 2
- Staining level 2+ (mid-brown), number of tissues (Ovary cancer, number 12): 3
- Staining level 3+ (dark brown), number of tissues (Ovary cancer, number 12): 4
- Tumor tissues specifically bound (positive/total) (breast cancer): 36/40
- Positive rate (cervical cancer): 85.00%
- Sensitivity response rate (cervical cancer): 85.00%
- Specificity (cervical cancer): 100%
- Tumor tissues specifically bound (positive/total) (cervical cancer): 17/20
- Staining level 0 (no visible staining), number of tissues (cervical cancer, number 20): 3
- Staining level 1+ (light brown), number of tissues (cervical cancer, number 20): 2
- Staining level 2+ (mid-brown), number of tissues (cervical cancer, number 20): 5
- Staining level 3+ (dark brown), number of tissues (cervical cancer, number 20): 10
- Positive rate (gastric cancer): 78.26%
- Sensitivity response rate (gastric cancer): 78.26%
- Specificity (gastric cancer): 80.95%
- Staining level 0 (no visible staining), number of tissues (gastric cancer, number 23): 5
- Staining level 1+ (light brown), number of tissues (gastric cancer, number 23): 1
- Staining level 2+ (mid-brown), number of tissues (gastric cancer, number 23): 7
- Staining level 3+ (dark brown), number of tissues (gastric cancer, number 23): 10
- Positive rate (normal stomach): 19.05%
- Staining level 0 (no visible staining), number of tissues (normal stomach, number 21): 17
- Staining level 1+ (light brown), number of tissues (normal stomach, number 21): 3
- Staining level 2+ (mid-brown), number of tissues (normal stomach, number 21): 1
- Staining level 3+ (dark brown), number of tissues (normal stomach, number 21): 0
- Tumor tissues specifically bound (positive/total) (ovarian cancer): 9/12
- Tumor tissues specifically bound (positive/total) (stomach cancer): 18/23
